Laboratory results: publication PMC12691273

Target: CRM1 protein (chromosome region maintenance 1)
Assay: co-immunoprecipitation (IP FOXO1, WB CRM1), band quantification
Conditions: chicken granulosa cells, with 740-Y-P; n = 3; parent: est. 1.9; read off a plot

How did the response turn out when “chicken forkhead box O1 (FOXO1) wild-type (from UniProt A0A8V0XGP1) S311A” was run?
Its response is 2.

“chicken forkhead box O1 (FOXO1) wild-type (from UniProt A0A8V0XGP1) S248A” was tested. Which response did it give?
Its response is 2.
